T1: recombinant human TNFR2 with 6×his tag (human, UniProt P20333 23-257, limits assumed)
T1 construct: Bought (Reprokine, Israel); also called TNFR2-His; hTNFR2-His; not shown: 6xHis tag
T1 sequence (looked up): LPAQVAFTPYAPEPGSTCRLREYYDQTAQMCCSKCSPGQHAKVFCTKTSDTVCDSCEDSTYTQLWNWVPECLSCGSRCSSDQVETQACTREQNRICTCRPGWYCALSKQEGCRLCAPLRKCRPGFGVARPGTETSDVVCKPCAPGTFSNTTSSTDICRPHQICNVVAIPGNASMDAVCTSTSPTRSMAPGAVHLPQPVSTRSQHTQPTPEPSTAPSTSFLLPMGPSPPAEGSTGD

T2: human TNFR2 (residues 1-461) expressed on HEK-TNFR2 reporter cells (human, UniProt P20333 23-461)
T2 sequence (looked up): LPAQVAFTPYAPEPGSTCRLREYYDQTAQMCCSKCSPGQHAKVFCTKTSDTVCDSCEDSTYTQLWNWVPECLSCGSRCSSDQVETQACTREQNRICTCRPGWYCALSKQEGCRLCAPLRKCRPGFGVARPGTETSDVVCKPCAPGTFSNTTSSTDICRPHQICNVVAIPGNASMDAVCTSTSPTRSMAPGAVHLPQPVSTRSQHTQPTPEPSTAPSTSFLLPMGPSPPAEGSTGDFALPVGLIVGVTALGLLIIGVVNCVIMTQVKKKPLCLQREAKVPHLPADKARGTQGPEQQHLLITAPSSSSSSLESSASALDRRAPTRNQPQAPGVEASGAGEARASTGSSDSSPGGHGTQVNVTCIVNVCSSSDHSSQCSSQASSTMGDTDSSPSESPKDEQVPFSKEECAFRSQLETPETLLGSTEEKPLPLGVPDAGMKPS


Columns and labels:
[1] = biological target: T1, recombinant human TNFR2 with 6×his tag; assay: ELISA, IgG coated, hTNFR2-His titrated, anti-His-HRP
Method: IgG binding affinity to TNFR2 was examined by ELISA. 96 well plates (Greiner Bio-One high binding) were coated with (50 ng/well) of the analyzed antibody and incubated overnight at 4° C. The plates were then washed three times with 300 μl PBS buffer containing 0.05% Tween 20 (PBS-T), blocked with 300μ PBS-T supplemented with 1% to 2% BSA, and incubated for 1 hour at room temperature. Antibodies-coated plates were washed three times with 300 μl PBS-T and incubated with serial dilutions of test ligand hTNFR2-His (Reprokine, Israel) in a final volume of […] for 1-2 hours. Plates were then washed three times with 300 μl PBS-T and incubated with 50 μl anti-HIS-HRP (Santa Cruz Biotechnology, USA, SC-8036HRP) conjugate that was diluted 1:250 in PBS. After an additional wash step of six washes, the reaction was developed with […] tetramethylbenzidine (TMB) reagent (Southern biotech, USA), and stopped with […] 0.5N H₂SO₄. Detection was done on a Synergy LX BioTek (BioTek, USA) plate reader with an absorbance filter set to […]. The binding affinity was determined by fitting the data to a specific binding non-linear regression model on Prisma 8 GraphPad software.
To test binding affinity of clones reformatted as IgG1 and IgG1LALA to TNFR2, an ELISA EC₅₀ binding experiment was conducted for each antibody.

[2] = biological target: T2, human TNFR2 (residues 1-461) expressed …; assay: cell-based or functional assay
[3] = biological target: T1, recombinant human TNFR2 with 6×his tag; assay: yeast surface display, TNFR2-His titrated, flow cytometry MFI
Method: To determine the effective concentration₅₀ (EC₅₀) of TNFR2 binding to yeast scFv or Fab clones (EC₅₀— TNFR2 binding), specific clones were labeled at TNFR concentrations ranging from 0.1 nM to 1000 nM and analyzed on an FACS. Median fluorescence intensity (MFI) was determined for each TNFR2 concentration and EC₅₀ (TNFR2 binding) was calculated using Prisma 8 GraphPad (GraphPad, San Diego, USA) software.

| Binder | EC50 [1] [nM] | Functional Agonism EC50 (nM), NFkB-SEAP reporter [2] [nM] | EC50 [3] [nM] |
| --- | --- | --- | --- |
| BDG30.113 (antibody, human IgG1, kappa, L234A L235A, V domains shown, Human IgG1(L234A/L235A); also called IgG of CID_327) VH: EVQLVQSGPELKKPGASVKVSCKGSGYTFTDLGMGWVRQAPGQGLEWMGWINTQTGEPFYADDFKGRFVFSLDTSVSTAYLQISSLKAEDTAVYYCTRDHPLGLDYWGQGTLVTVSS VL: DIQVTQSPSSLSASVGDRVTITCITSQSVDVAGVSYLNWYQQKPGKVPKFLIHKASNLRSGVPSRFSGSGSGTDFTLTISSLQPEDVATYYCQQAREDPYTFGQGTKVEIKR | 2.5 | 3.8 |  |
| BDG30.086 (antibody, human IgG1, kappa, Human IgG1; also called IgG of CID_262) heavy: not shown light: DIQMTQSPSSLSASVGDRVTITCRASQDISTAVAWSQQKPGKAPKLLIYPASSLYSGVPSRFSGSRSGTDFTLTISSLQPEDFATYYCQQHPYTPPTFGQGTKVEIKRTVAAPSVFIFPPSDEQLKSGTASVVCLLNNFYPREAKVQWKVDNALQSGNSQESVTEQDSKDSTYSLSSTLTLSKADYEKHKVYACEVTHQGLSSPVTKSFNRGEC | 8.1 | 1.4 |  |
| BDG30.085 (antibody, human IgG1, kappa, Human IgG1; also called IgG of CID_261) heavy: not shown light: DIQMTQSPSSLSASVGDRVTITCRASQDISTAVAWSQQKPGKAPKLLIYSASSLYSGVPSRFSGSRSGTDFTLTISSLQPEDFATYYCQQPSLTPPTFGQGTKVEIKRTVAAPSVFIFPPSDEQLKSGTASVVCLLNNFYPREAKVQWKVDNALQSGNSQESVTEQDSKDSTYSLSSTLTLSKADYEKHKVYACEVTHQGLSSPVTKSFNRGEC | 4.3 | 24.7 |  |
| BDG30.087 (antibody, human IgG1, kappa, Human IgG1; also called IgG of CID_264) heavy: not shown light: DIQMTQSPSSLSASVGDRVTITCRASQDVSTAVAWSQQKPGKAPKLLIYPASSLYSGVPSRFSGSRSGTDFTLTISSLQPEDFATYYCQQPTLTPPTFGQGTKVEIKRTVAAPSVFIFPPSDEQLKSGTASVVCLLNNFYPREAKVQWKVDNALQSGNSQESVTEQDSKDSTYSLSSTLTLSKADYEKHKVYACEVTHQGLSSPVTKSFNRGEC | 18.4 | 3.9 |  |
| BDG30.088 (antibody, human IgG1, kappa, Human IgG1; also called IgG of CID_266) heavy: not shown light: DIQMTQSPSSLSASVGDRVTITCRASQDVSTAVAWYQQKPGKAPKLLIYPASSLYSGVPSRFSGSRSGTDFTLTISSLQPEDFATYYCQQPGYTPPTFGQGTKVEIKRTVAAPSVFIFPPSDEQLKSGTASVVCLLNNFYPREAKVQWKVDNALQSGNSQESVTEQDSKDSTYSLSSTLTLSKADYEKHKVYACEVTHQGLSSPVTKSFNRGEC | 13.1 | 49 |  |
| BDG30.032 (antibody, human IgG1, kappa, Human IgG1; produced in HEK cells by Genscript; also called IgG of CID_436) heavy: not shown light: DIQMTQSPILLSASVGDRVTITCRASQDVSTAVAWSQQRTNGSPRLLIYSASSLYSGVPSRFSGSRSGTDFTLTISSLQPEDIADYYCQQPTYTPPTFGAGTKVEIKRTVAAPSVFIFPPSDEQLKSGTASVVCLLNNFYPREAKVQWKVDNALQSGNSQESVTEQDSKDSTYSLSSTLTLSKADYEKHKVYACEVTHQGLSSPVTKSFNRGEC | 21.9 | 0.85 |  |
| BDG30.081 (antibody, human IgG1, kappa, V domains shown, Human IgG1; also called IgG of CID_231) VH: EVQLVESGGGLVQPGGSLRLSCAASGFNIRATYIHWVRQSPGKGLEWVADISPDNGDTRYADSVKGRFTISADTSKNTAYLQMNSLRAEDTAIYYCSRDLADGYNAFDLWGQGTLVTVSS VL: DIQMTQSPILLSASVGDRVTITCRASQDVSTAVAWSQQRTNGSPRLLIYSASSLYSGVPSRFSGSRSGTDFTLTISSLQPEDIADYYCQQHGYTPPTFGAGTKVEIKR | 50.7 |  |  |
| BDG30.084 (antibody, human IgG1, kappa, V domains shown, Human IgG1; also called IgG of CID_234) VH: EVQLVESGGGLVQPGGSLRLSCAASGFNIRAFYIHWVRQSPGKGLEWVADIDPTNGDTRYADSVKGRFTISADTSKNTAYLQMNSLRAEDTAIYYCTREGEDGYNAFDQWGQGTLVTVSS VL: DIQMTQSPILLSASVGDRVTITCRASQDVSTAVAWYQQRTNGSPRLLIYPASSLYSGVPSRFSGSRSGTDFTLTISSLQPEDIADYYCQQPRYTPPTFGAGTKVEIKR | 58.9 |  |  |

Next, values leading:

| EC50 [1] [nM] | Functional Agonism EC50 (nM), NFkB-SEAP reporter [2] [nM] | EC50 [3] [nM] | Binder |
| --- | --- | --- | --- |
| 2.2 | 6.4 |  | BDG30.114 (antibody, human IgG1, kappa, L234A L235A, V domains shown, Human IgG1(L234A/L235A); also called IgG of CID_328) VH: EVQLVQSGPELKKPGASVKVSCKGSGYTFTDLGMNWVRQAPGQGLEWMGWINTQTGEPFYADDFKGRFVFSLDTSVSTAYLQISSLKAEDTAVYFCARDHPLGLDYWGQGTLVTVSS VL: DIQVTQSPSSLSASVGDRVTITCITSQSVDVNGVSYLNWYQQKPGKVPKFLIYKASILRSGVPSRFSGSGSGTDFTLTISSLQPEDVATYYCQQSREDPYTFGQGTKVEIKR |
|  |  | 5.6 | CID_324 (scFv) scFv: EVQLVQSGPELKKPGASVKVSCKGSGYTFTDLGINWVRQAPGQGLEWMGWINTHTGEPFYADDFKGRFVFSLDTSVSTAYLQISSLKAEDTAVYYCTRDHPLGLDYWGQGTLVTVSSDIQVTQSPSSLSASVGDRVTITCITSQSVDVNGVSYLNWYQQKPGKVPKFLIYKASRLRSGVPSRFSGSGSGTDFTLTISSLQPEDVATYYCQQSREDPYTFGQGTKVEIK |
|  | 0.5 |  | BDG30.203 (antibody, human IgG1, kappa, L234A L235A) heavy: not shown light: DIQMTQSPSSLSASVGDRVTITCRASQDVSTAVAWSQQKPGKAPKLLIYPASSLYSGVPSRFSGSRSGTDFTLTISSLQPEDFATYYCQQPTLTPPTFGQGTKVEIKRTVAAPSVFIFPPSDEQLKSGTASVVCLLNNFYPREAKVQWKVDNALQSGNSQESVTEQDSKDSTYSLSSTLTLSKADYEKHKVYACEVTHQGLSSPVTKSFNRGEC |
|  | 3.1 |  | BDG30.204 (antibody, human IgG1, kappa, L234A L235A) heavy: not shown light: DIQMTQSPSSLSASVGDRVTITCRASQDVSTAVAWYQQKPGKAPKLLIYPASSLYSGVPSRFSGSRSGTDFTLTISSLQPEDFATYYCQQPGYTPPTFGQGTKVEIKRTVAAPSVFIFPPSDEQLKSGTASVVCLLNNFYPREAKVQWKVDNALQSGNSQESVTEQDSKDSTYSLSSTLTLSKADYEKHKVYACEVTHQGLSSPVTKSFNRGEC |
|  | 2.9 |  | BDG30.202 (antibody, human IgG1, kappa, L234A L235A) heavy: not shown light: DIQMTQSPSSLSASVGDRVTITCRASQDISTAVAWSQQKPGKAPKLLIYSASSLYSGVPSRFSGSRSGTDFTLTISSLQPEDFATYYCQQPSLTPPTFGQGTKVEIKRTVAAPSVFIFPPSDEQLKSGTASVVCLLNNFYPREAKVQWKVDNALQSGNSQESVTEQDSKDSTYSLSSTLTLSKADYEKHKVYACEVTHQGLSSPVTKSFNRGEC |
| 50.4 |  |  | BDG30.089 (antibody, human IgG1, kappa, V domains shown, Human IgG1; also called IgG of CID_267) VH: EVQLVESGGGLVQPGGSLRLSCAASGFNIRDYYIHWVRQAPGKGLEWVADIDPTNGDTRYADSVKGRFTISADTSKNTAYLQMNSLRAEDTAVYYCSREGQDGYNAWDLWGQGTLVTVSS VL: DIQMTQSPSSLSASVGDRVTITCRASQDVSTAVAWYQQKPGKAPKLLIYPASSLYSGVPSRFSGSRSGTDFTLTISSLQPEDFATYYCQQHPYTPPTFGQGTKVEIKR |
| 5.1 | 3 |  | BDG30.116 (antibody, human IgG1, kappa, L234A L235A, Human IgG1(L234A/L235A); also called IgG of CID_262) heavy: not shown light: DIQMTQSPSSLSASVGDRVTITCRASQDISTAVAWSQQKPGKAPKLLIYPASSLYSGVPSRFSGSRSGTDFTLTISSLQPEDFATYYCQQHPYTPPTFGQGTKVEIKRTVAAPSVFIFPPSDEQLKSGTASVVCLLNNFYPREAKVQWKVDNALQSGNSQESVTEQDSKDSTYSLSSTLTLSKADYEKHKVYACEVTHQGLSSPVTKSFNRGEC |
|  | 1 |  | BDG30.115 (antibody, human IgG1, kappa, L234A L235A) heavy: not shown light: DIQMTQSPILLSASVGDRVTITCRASQDVSTAVAWSQQRTNGSPRLLIYSASSLYSGVPSRFSGSRSGTDFTLTISSLQPEDIADYYCQQPTYTPPTFGAGTKVEIKRTVAAPSVFIFPPSDEQLKSGTASVVCLLNNFYPREAKVQWKVDNALQSGNSQESVTEQDSKDSTYSLSSTLTLSKADYEKHKVYACEVTHQGLSSPVTKSFNRGEC |

Source: patent US20230167188A1 (BIOLOJIC DESIGN, published 2023)
